Source: US7537762B2, “Human monoclonal antibodies to activin receptor-like kinase-1” (Amgen Fremont, Inc., priority 2005, dated 2009)
One block for each molecule: values may come before it.

Key:
[1] = molecular target: T1, Recombinant human ALK-1/FC chimera (Homo sapiens, UniProt P37023); assay: BIACORE cross-competition / epitope binning; assay type: binding; conditions: panel of 14 antibodies, 50 nM, primary/secondary injections
T1 construct: purchased R&D Systems, Inc. 370-AL; host or cells: mouse myeloma cell line
Experimental: Cross-competition experiments were performed using the BIACORE® 3000 instrument (Biacore International AB, Uppsala, Sweden and Piscataway, N.J.), following the manufacturer's protocols.
Recombinant human ALK-1/FC chimera was immobilized onto the dextran layer of a CM5 biosensor chip using amine coupling. Chips were prepared using 10 mM acetate buffer pH 5.0 as the immobilization buffer and a protein density of 940 RU was achieved. Deactivation of unreacted N-hydroxysuccinimide esters was performed using 1 M ethanolamine hydrochloride, pH 8.5.
Purified mAbs were diluted to a concentration of 50 nM in HBS-EP running buffer (0.01 M HEPES pH 7.4, 0.15 M NaCl, 3 mM EDTA, 0.005% Polysorbate 20). A primary antibody was chosen and then injected across the flow cell for 600 seconds at a rate of 10 μL/min. After the injection was complete, a secondary antibody was chosen and injected across the same flow cell for 600 seconds at a rate of 10 μL/min. The sensor surface was regenerated by a 12 second injection of 100 mM H3PO4 (25 μL/min).
After regeneration, the primary antibody was again injected across the flow cell for 600 seconds at a rate of 10 μL/min. […] Threshold values were determined by using the same antibody as both the primary antibody and secondary antibody. […]

[2] = molecular target: T2, recombinant human ALK-1/Fc fusion protein (hALK-1/Fc) (Homo sapiens, UniProt P37023); assay: Avidity by surface plasmon resonance (BIACORE), immobilized hALK-1/Fc; assay type: binding; conditions: SPR, dissociation monitored 10 minutes
T2 construct: purchased R&D Systems, Inc. 370-AL; host or cells: mouse myeloma cell line
Experimental: Avidity measures of purified anti-ALK-1 antibodies by surface plasmon resonance using the BIACORE® 3000 instrument were performed as follows using the manufacturer's protocols.
To perform kinetic analyses, recombinant human ALK-1/Fc fusion protein (hALK-1/Fc) and cynomologus ALK-1/Fc fusion protein (cALK-1/Fc) were immobilized on separate flow cells of a CM5 BIAcore sensor chip using routine amine coupling. […] Deactivation of unreacted N-hydroxysuccinimide esters was performed using 1 M ethanolamine hydrochloride, pH 8.5. Antibody samples in running buffer were prepared at concentrations ranging from 0.125 to 2 nM (a 0 nM solution comprising running buffer alone was included as a zero reference). Samples were randomized and injected in duplicate for 10 minutes each across all 4 flow cells using HBS-EP (10 mM HEPES pH 7.4, 150 mM NaCl, 3 mM EDTA, 0.005% Surfactant P20) as running buffer. […] A flow rate of 25 μL/min was used to determine avidity values. The dissociation of the antibody was monitored for 10 minutes, the surface regenerated by a 12 second injection of 100 mM H3PO4 (25 μL/min). The raw data were processed using the Scrubber (©BioLogic Software) software package and analyzed using the CLAMP (©BioLogic Software) software package. […]

[3] = molecular target: T3, monomeric ALK-ECD (Homo sapiens, UniProt P37023); assay: Affinity constants of representative mAbs by SPR (BIACORE), Example 8; assay type: binding; conditions: mAb immobilized (200-400 RU), monomeric ALK-ECD 3.125-400 nM, different ECD preparation than Example 7
T3 construct: made in house; host or cells: 293T cells, transient, secreted (pSecTag2/Hygro)
Experimental: Affinity measures (KD and koff) of purified anti-ALK-1 antibodies by surface plasmon resonance using the BIACORE® 3000 instrument were performed as follows using the manufacturer's protocols.
To perform kinetic analyses, affinity-purified mAbs were immobilized onto the dextran layer of a CM5 biosensor chip using amine coupling. Surfaces were prepared using 10 mM acetate buffer pH 5.0 as the immobilization buffer and protein densities of 200-400 RU were achieved. Deactivation of unreacted N-hydroxysuccinimide esters was performed using 1 M ethanolamine hydrochloride, pH 8.5. Samples of monomeric ALK-ECD in running buffer were prepared at concentrations ranging from 3.125-400 nM (a 0 nM solution comprising running buffer alone was included as a zero reference). Samples were randomized and injected in duplicate for 2 minutes each across all 4 flow cells using HBS-EP (10 mM HEPES pH 7.4, 150 mM NaCl, 3 mM EDTA, 0.005% Surfactant P20) as running buffer. […] Dissociation of monomeric ALK-ECD was monitored for 10 minutes, the surface regenerated by a 12 second injection of 100 mM H3PO4 (25 μL/min). The raw data were processed using the Scrubber (©BioLogic Software) software package and analyzed using the CLAMP (©BioLogic Software) software package. The data were fit globally to a simple 1:1 Langmuir binding model.

[4] = tested on: human vessels (human CD-31); assay: Collagen model in human foreskin-SCID chimera mice, human CD-31 staining; assay type: in vivo, human foreskin-SCID chimera mouse; conditions: 3.0 mg/ml Collagen, no HMVEC, 100 μg/ml id. injection
From the text: Upon arrival from National Disease Research Institute and Cooperative Human Tissue Network, human foreskin pieces were trimmed of unhealthy regions and transferred to RPMI media (CELLGRO®/Mediatech, Cat# MT-15-040-CV supplemented with Penicillin and Streptamycin (GIBCO®/Life Tech, Cat# 15070-063) (add 5 mLs of the pen/strep stock solution into 500 mLs of RPMI). Using a scalpel and cutting in sterile petri dish, the skins were trimmed to an oval shape of approximately 8×13 mm cleaning any ragged ends and connective tissues, and stored on wet ice prior to surgery. The appropriate volume (4 μL/gram of animal) of 100 mg/mL (KeTASET®(ketamine), Fort Dodge Animal Health)/1 mg/mL medetomidine (Pfizer Animal Health-DORMITOR®(medetomidine)) solution was intraperitoneally injected into scid mouse abdomen (i.e., at a 45° angle, under skin but not too deep internally). Once anesthetized, the mice were applied with eye lubricant, a subcutaneuosly injection of Ketoprofen (10 mg/kg, Fort Dodge Animal Health) and hair was shaved over the site of the surgery. […] Complete healing occurred between 21-28 days after which time skins were ready to be inoculated with tumor cells.

hALK-1/Fc koff [2]: 1.1e-05 s⁻¹
B2: 1.162.1: human anti-ALK-1 monoclonal antibody; VH SEQ ID NO: 26, VL SEQ ID NO: 28 (antibody, V domains shown)
VH: QVQLQESGPGLVKPSQTLSLICTVSGGSISSGEYYWSWIRQHPGKGLEWIGYIYYSGSTYYNPSLKSRLTISVDTSKNQFSLKLSSVTAADTAVYYCAREGIGAFDIWGQGTMVTVSS
VL: EIVLTQSPGTLSLSPGERATLSCRASQSVSSSYLAWYQQKPGQAPRLLIYGASSRATGIPDRFSGSGSGTDFTLTIIRLDPEDFAVYYCQRYGSSPITFGQGTRLEIK
modifications: Human

off-rate [3]: 2.5e-05 s⁻¹
on-rate [3]: 32000 M⁻¹ s⁻¹
B3: 4.72.1: human anti-ALK-1 monoclonal antibody; VH SEQ ID NO: 66, VL SEQ ID NO: 68 (antibody, V domains shown)
VH: QVQLQESGPGLVKPSQTLSLTCTVSGGSISSGEYYWSWIRQHPGKGLEWIGYIFYSGSTYYNPSLKSRVTISLDTSKNQFSLKLSSVTAADTAVYYCARESTDGMDVWGQGTTVTVSS
VL: EIVLTQSPGTLSLSPGERATLSCRASQSVSSSYLAWYQRKPGQAPRLLIYGVSSRATGIPDRFSGSGSGTDFTLTISRLEPEDFAVYYCQQYGSSMITFGQGTRLEIK
modifications: Human

Continued, molecule first:

B1: 1.11.1: human anti-ALK-1 monoclonal antibody; VH SEQ ID NO: 10, VL SEQ ID NO: 12 (antibody, V domains shown)
VH: QVQLVESGGGVVQPGRSLRLSCAASGFTFSSHGMYWVRQAPGKGLEWVAAIWYDGSNKYYADSVKGRFTISRDNSKNTLYLQMNSLRAEDTAVYYCARDQEQWPDVFDIWGQGTMVTVSS
VL: DIQMTQSPSSLSASVGDRVTITCRASQGIRNYLAWFQQKPGKAPKSLIYGASSLQSGVPSKFSGSGSGTDFTLTISSLQPEDFATYYCQQYNSYPLTFGGGTKVEIK
modifications: Human
epitope bin [1]: in one bin

B4: 1.14.1: human anti-ALK-1 monoclonal antibody; VH SEQ ID NO: 18, VL SEQ ID NO: 20 (antibody, V domains shown)
VH: QVQLQESGPGLVKPSETLSLTCTVSGGSVSSGDYYWNWIRQPPGKGLEWIGYIYYSGSTNYNPSLKSRVTISVDTSKNQFSLKLSSVTAADTAVYYCAREAVSAFDYWGQGTLVTVSS
VL: EIVLTQSPGTLSLSPGERATLSCRASQSVSSTYLAWHQQKPGQAPRLLIYGVSSRASGVPDRFSGSGSGTDFTLTISRLEPEDFAVYYCQQYGSSPITFGQGTRLEIK
modifications: Human
Human vessel scoring ([4]; 4 days of Rx): 44 ± 28 1 × 10^3
% of Control (human vessels) ([4]; 4 days, control = isotype control antibody): 59%
